T1: GST-tagged full-length PARI (human, UniProt Q9NWS1 1-579)
T1 sequence (looked up): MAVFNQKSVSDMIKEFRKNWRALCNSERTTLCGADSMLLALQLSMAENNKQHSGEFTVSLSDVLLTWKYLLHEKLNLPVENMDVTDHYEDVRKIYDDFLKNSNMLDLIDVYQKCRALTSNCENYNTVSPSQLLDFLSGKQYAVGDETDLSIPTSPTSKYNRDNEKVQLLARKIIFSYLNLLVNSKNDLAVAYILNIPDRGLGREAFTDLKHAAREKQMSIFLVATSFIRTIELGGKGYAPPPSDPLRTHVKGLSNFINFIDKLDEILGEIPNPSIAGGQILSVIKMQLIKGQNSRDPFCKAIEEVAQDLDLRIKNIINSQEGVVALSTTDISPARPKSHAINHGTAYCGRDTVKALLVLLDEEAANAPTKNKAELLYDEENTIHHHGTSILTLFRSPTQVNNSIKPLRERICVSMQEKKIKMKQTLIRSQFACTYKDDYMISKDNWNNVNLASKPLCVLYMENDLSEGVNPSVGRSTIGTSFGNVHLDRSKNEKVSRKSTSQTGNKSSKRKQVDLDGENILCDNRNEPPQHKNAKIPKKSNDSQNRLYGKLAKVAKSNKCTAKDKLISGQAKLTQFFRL

T2: Recombinant Flag-tagged PARI purified from insect cells (human, UniProt Q9NWS1 1-579)
T2 sequence (looked up): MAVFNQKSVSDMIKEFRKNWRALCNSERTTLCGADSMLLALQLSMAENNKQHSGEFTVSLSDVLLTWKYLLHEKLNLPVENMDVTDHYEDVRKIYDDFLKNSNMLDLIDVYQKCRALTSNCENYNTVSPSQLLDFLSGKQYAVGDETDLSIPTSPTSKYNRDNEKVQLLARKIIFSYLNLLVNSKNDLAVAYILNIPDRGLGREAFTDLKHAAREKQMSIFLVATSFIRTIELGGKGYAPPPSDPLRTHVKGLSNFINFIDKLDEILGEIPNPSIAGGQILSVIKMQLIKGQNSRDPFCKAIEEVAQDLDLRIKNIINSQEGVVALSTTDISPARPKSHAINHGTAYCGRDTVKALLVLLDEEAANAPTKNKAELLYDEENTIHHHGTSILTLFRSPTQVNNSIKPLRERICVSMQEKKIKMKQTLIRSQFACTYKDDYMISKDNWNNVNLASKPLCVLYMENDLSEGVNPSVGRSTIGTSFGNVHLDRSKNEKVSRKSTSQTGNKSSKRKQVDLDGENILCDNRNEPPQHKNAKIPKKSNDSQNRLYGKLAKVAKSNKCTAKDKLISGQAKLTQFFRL


How the values were obtained:
[1] = molecular target: T1, GST-tagged full-length PARI; test: pull-down
[2] = molecular target: T2, Recombinant Flag-tagged PARI purified …; test: pull-down

Binder	binding result [1]	binding result [2]
Recombinant human RAD51 expressed and purified from bacteria (natural protein, UniProt Q06609 1-339, looked up) MAMQMQLEANADTSVEEESFGPQPISRLEQCGINANDVKKLEEAGFHTVEAVAYAPKKELINIKGISEAKADKILAEAAKLVPMGFTTATEFHQRRSEIIQITTGSKELDKLLQGGIETGSITEMFGEFRTGKTQICHTLAVTCQLPIDRGGGEGKAMYIDTEGTFRPERLLAVAERYGLSGSDVLDNVAYARAFNTDHQTQLLYQASAMMVESRYALLIVDSATALYRTDYSGRGELSARQMHLARFLRMLLRLADEFGVAVVITNQVVAQVDGAAMFAADPKKPIGGNIIAHASTTRLYLRKGRGETRICKIYDSPCLPEAEAMFAINADGVGDAKD	binds	–
GST-tagged human RAD51 (natural protein, UniProt Q06609 1-339, looked up) MAMQMQLEANADTSVEEESFGPQPISRLEQCGINANDVKKLEEAGFHTVEAVAYAPKKELINIKGISEAKADKILAEAAKLVPMGFTTATEFHQRRSEIIQITTGSKELDKLLQGGIETGSITEMFGEFRTGKTQICHTLAVTCQLPIDRGGGEGKAMYIDTEGTFRPERLLAVAERYGLSGSDVLDNVAYARAFNTDHQTQLLYQASAMMVESRYALLIVDSATALYRTDYSGRGELSARQMHLARFLRMLLRLADEFGVAVVITNQVVAQVDGAAMFAADPKKPIGGNIIAHASTTRLYLRKGRGETRICKIYDSPCLPEAEAMFAINADGVGDAKD	–	binds

— publication PMC3267324 (Molecular Cell, 2011)
